In the RNAGym collection of RNA variant scans (doi:10.1093/molbev/msab373) one finds reverse-splicing fitness data, which are given here for 30 variants.

B1: Azoarcus group I ribozyme (parent)
chain: GUGCCUUGCGCCGGGAAACCACGCAAGGGAUGGUGUCAAAUUCGGCGAAACCUAAGCGCCCGCCCGGGCGUAUGGCAACGCCGAGCCAAGCUUCGGCGCCUGCGCCGAUGAAGGUGUAGAGACUAGACGGCACCCACCUAAGGCAAACGCUAUGGUGAAGGCAUAGUCCAGGGAGUGGCGAAAGUCACACAAACCGG

Variants of B1 are the subject of this data set. Kind of data set: reverse-splicing fitness (ratio to wild type); higher = more active; in vitro selection; Mg2+ level not given. In a few lines: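 An in vitro group I ribozyme library with randomized positions was T7-transcribed and gel-purified. In triplicate, 10 pmol RNA in EPPS pH 7.5 was reacted with 50 pmoles of a 30-nt RNA substrate for 1 h at 37 °C across several added MgCl2 levels (1–48 mM), then stopped with EDTA. Products were reverse transcribed from a substrate-complementary primer, PCR-amplified and sequenced (HiSeq 4000). Fitness is a variant's read proportion after selection over that before, normalised to wild type.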
On to GUGCCUUGCGCCGGGAAACCACGCAAGGGAUGGUGUCAAAUUCGGCGAAACCUAAGCGCCCGCCCGGGCGUAUGGCAACGCUGAGCCAAGCUUCGGCGCCUGCGCCGAUGCAGGUGUAGGGACUAGACGGCACCCACCUAAGGCUAACGUUAUGGUGAAGGCAUAGUCUAGGGAGGGGCGAAAGUCACACAAACCGG, for which the reverse-splicing fitness is 0.00431.

For the variant GUGCCUUGCGCCGGGAAACCACGCAAGGGAUGGUGUCAAAUUCGGCGAAACCUAAGCGCCCGCCCGGGCGUAUGGCAACGCUGAGCCAAGCUUCGGCGCCUGCGCCGAUGCAGGUGUAGGGACUAGACGGCACCCACCUAAGGCUAACGUUAUGGUGAAGGCAUAGUCUAGGGAGAGGCGAAAGUCACACAAACCGG, the reverse-splicing fitness is 0.0158.

In the case of GUGCCUUGCGCCGGGAAACCACGCAAGGGAUGGUGUCAAAUUCGGCGAAACCUAAGCGCCCGCCCGGGCGUAUGGCAACGCUGAGCCAAGCUUCGGCGCCUGCGCCGAUGCAGGUGUAGGGACUAGACGGCACCCACCUAAGGCUAACGUUAUGGUGAAGGCAUAGUCUAGGGAGCGGCGAAAGUCACACAAACCGG, the reverse-splicing fitness was 0.0107.

Consider GUGCCUUGCGCCGGGAAACCACGCAAGGGAUGGUGUCAAAUUCGGCGAAACCUAAGCGCCCGCCCGGGCGUAUGGCAACGCUGAGCCAAGCUUCGGCGCCUGCGCCGAUGCAGGUGUAGGGACUAGACGGCACCCACCUAAGGCUAACGCUAUGGUGAAGGCAUAGUCCAGGGAGAGGCGAAAGUCACACAAACCGG, for which the reverse-splicing fitness was found to be 0.0148.

Consider GUGCCUUGCGCCGGGAAACCACGCAAGGGAUGGUGUCAAAUUCGGCGAAACCUAAGCGCCCGCCCGGGCGUAUGGCAACGCUGAGCCAAGCUUCGGCGCCUGCGCCGAUGCAGGUGUAGGGACUAGACGGCACCCACCUAAGGCUAACGCUAUGGUGAAGGCAUAGUCCAGGGAGCGGCGAAAGUCACACAAACCGG, for which the reverse-splicing fitness came out at 0.0192.

As for GUGCCUUGCGCCGGGAAACCACGCAAGGGAUGGUGUCAAAUUCGGCGAAACCUAAGCGCCCGCCCGGGCGUAUGGCAACGCUGAGCCAAGCUUCGGCGCCUGCGCCGAUGCAGGUGUAGGGACUAGACGGCACCCACCUAAGGCUAACGCUAUGGUGAAGGCAUAGUCUAGGGAGAGGCGAAAGUCACACAAACCGG, the reverse-splicing fitness is 0.0158.

Consider GUGCCUUGCGCCGGGAAACCACGCAAGGGAUGGUGUCAAAUUCGGCGAAACCUAAGCGCCCGCCCGGGCGUAUGGCAACGCUGAGCCAAGCUUCGGCGCCUGCGCCGAUGCAGGUGUAGGGACUAGACGGCACCCACCUAAGGCUAACGCUAUGGUGAAGGCAUAGUCUAGGGAGCGGCGAAAGUCACACAAACCGG, for which the reverse-splicing fitness amounted to 0.0112.

For the variant GUGCCUUGCGCCGGGAAACCACGCAAGGGAUGGUGUCAAAUUCGGCGAAACCUAAGCGCCCGCCCGGGCGUAUGGCAACGCUGAGCCAAGCUUCGGCGCCUGCGCCGAUGCAGGUGUAGGGACUAGACGGCACCCACCUAAGGCUAACGCUAUGGUGAAGGCAUAGUCUAGGGAGGGGCGAAAGUCACACAAACCGG, the reverse-splicing fitness was 0.00369.

As for GUGCCUUGCGCCGGGAAACCACGCAAGGGAUGGUGUCAAAUUCGGCGAAACCUAAGCGCCCGCCCGGGCGUAUGGCAACGCUGAGCCAAGCUUCGGCGCCUGCGCCGAUGCAGGUGUAGGGACUAGACGGCACCCACCUAAGGCUAACGUUAUGGUGAAGGCAUAGUCCAGGGAGAGGCGAAAGUCACACAAACCGG, the reverse-splicing fitness was 0.013.

On to GUGCCUUGCGCCGGGAAACCACGCAAGGGAUGGUGUCAAAUUCGGCGAAACCUAAGCGCCCGCCCGGGCGUAUGGCAACGCUGAGCCAAGCUUCGGCGCCUGCGCCGAUGCAGGUGUAGGGACUAGACGGCACCCACCUAAGGCUAACGUUAUGGUGAAGGCAUAGUCCAGGGAGGGGCGAAAGUCACACAAACCGG, for which the reverse-splicing fitness came to 0.00357.

In the case of GUGCCUUGCGCCGGGAAACCACGCAAGGGAUGGUGUCAAAUUCGGCGAAACCUAAGCGCCCGCCCGGGCGUAUGGCAACGCUGAGCCAAGCUUCGGCGCCUGCGCCGAUGCAGGUGUAGGGACUAGACGGCACCCACCUAAGGCUAACGUUAUGGUGAAGGCAUAGUCCAGGGAGCGGCGAAAGUCACACAAACCGG, the reverse-splicing fitness was 0.0178.

Take GUGCCUUGCGCCGGGAAACCACGCAAGGGAUGGUGUCAAAUUCGGCGAAACCUAAGCGCCCGCCCGGGCGUAUGGCAACGCUGAGCCAAGCUUCGGCGCCUGCGCCGAUGCAGGUGUAGGGACUAGACGGCACCCACCUAAGGCUAACGUUAUGGUGAAGGCAUAGUCAAGGGAGCGGCGAAAGUCACACAAACCGG: the reverse-splicing fitness came to 0.00758.

Consider GUGCCUUGCGCCGGGAAACCACGCAAGGGAUGGUGUCAAAUUCGGCGAAACCUAAGCGCCCGCCCGGGCGUAUGGCAACGCUGAGCCAAGCUUCGGCGCCUGCGCCGAUGCAGGUGUAGGGACUAGACGGCACCCACCUAAGGCUAACGUUAUGGUGAAGGCAUAGUCAAGGGAGAGGCGAAAGUCACACAAACCGG, for which the reverse-splicing fitness amounted to 0.0111.

On to GUGCCUUGCGCCGGGAAACCACGCAAGGGAUGGUGUCAAAUUCGGCGAAACCUAAGCGCCCGCCCGGGCGUAUGGCAACGCUGAGCCAAGCUUCGGCGCCUGCGCCGAUGCAGGUGUAGGGACUAGACGGCACCCACCUAAGGCUAACGUUAUGGUGAAGGCAUAGUCAAGGGAGGGGCGAAAGUCACACAAACCGG, for which the reverse-splicing fitness was found to be 0.00451.

Turning to GUGCCUUGCGCCGGGAAACCACGCAAGGGAUGGUGUCAAAUUCGGCGAAACCUAAGCGCCCGCCCGGGCGUAUGGCAACGCUGAGCCAAGCUUCGGCGCCUGCGCCGAUGCAGGUGUAGGGACUAGACGGCACCCACCUAAGGCUAACGCUAUGGUGAAGGCAUAGUCGAGGGAGGGGCGAAAGUCACACAAACCGG, the reverse-splicing fitness was 0.00395.

As to GUGCCUUGCGCCGGGAAACCACGCAAGGGAUGGUGUCAAAUUCGGCGAAACCUAAGCGCCCGCCCGGGCGUAUGGCAACGCUGAGCCAAGCUUCGGCGCCUGCGCCGAUGCAGGUGUAGGGACUAGACGGCACCCACCUAAGGCUAACGCUAUGGUGAAGGCAUAGUCGAGGGAGAGGCGAAAGUCACACAAACCGG, the reverse-splicing fitness is 0.00938.

GUGCCUUGCGCCGGGAAACCACGCAAGGGAUGGUGUCAAAUUCGGCGAAACCUAAGCGCCCGCCCGGGCGUAUGGCAACGCUGAGCCAAGCUUCGGCGCCUGCGCCGAUGCAGGUGUAGGGACUAGACGGCACCCACCUAAGGCUAACGCUAUGGUGAAGGCAUAGUCGAGGGAGCGGCGAAAGUCACACAAACCGG: the reverse-splicing fitness came to 0.0109.

For the variant GUGCCUUGCGCCGGGAAACCACGCAAGGGAUGGUGUCAAAUUCGGCGAAACCUAAGCGCCCGCCCGGGCGUAUGGCAACGCUGAGCCAAGCUUCGGCGCCUGCGCCGAUGCAGGUGUAGGGACUAGACGGCACCCACCUAAGGCUAACGUUAUGGUGAAGGCAUAGUCGAGGGAGAGGCGAAAGUCACACAAACCGG, the reverse-splicing fitness was 0.00992.

Turning to GUGCCUUGCGCCGGGAAACCACGCAAGGGAUGGUGUCAAAUUCGGCGAAACCUAAGCGCCCGCCCGGGCGUAUGGCAACGCUGAGCCAAGCUUCGGCGCCUGCGCCGAUGCAGGUGUAGGGACUAGACGGCACCCACCUAAGGCUAACGUUAUGGUGAAGGCAUAGUCGAGGGAGCGGCGAAAGUCACACAAACCGG, the reverse-splicing fitness was found to be 0.0111.

GUGCCUUGCGCCGGGAAACCACGCAAGGGAUGGUGUCAAAUUCGGCGAAACCUAAGCGCCCGCCCGGGCGUAUGGCAACGCUGAGCCAAGCUUCGGCGCCUGCGCCGAUGCAGGUGUAGGGACUAGACGGCACCCACCUAAGGCUAACGUUAUGGUGAAGGCAUAGUCGAGGGAGGGGCGAAAGUCACACAAACCGG: the reverse-splicing fitness turned out to be 0.00453.

In the case of GUGCCUUGCGCCGGGAAACCACGCAAGGGAUGGUGUCAAAUUCGGCGAAACCUAAGCGCCCGCCCGGGCGUAUGGCAACGCUGAGCCAAGCUUCGGCGCCUGCGCCGAUGCAGGUGUAGGGACUAGACGGCACCCACCUAAGGCUAACGCUAUGGUGAAGGCAUAGUCAAGGGAGAGGCGAAAGUCACACAAACCGG, the reverse-splicing fitness is 0.00825.

As for GUGCCUUGCGCCGGGAAACCACGCAAGGGAUGGUGUCAAAUUCGGCGAAACCUAAGCGCCCGCCCGGGCGUAUGGCAACGCUGAGCCAAGCUUCGGCGCCUGCGCCGAUGCAGGUGUAGGGACUAGACGGCACCCACCUAAGGCUAACGCUAUGGUGAAGGCAUAGUCAAGGGAGGGGCGAAAGUCACACAAACCGG, the reverse-splicing fitness is 0.00418.

Take GUGCCUUGCGCCGGGAAACCACGCAAGGGAUGGUGUCAAAUUCGGCGAAACCUAAGCGCCCGCCCGGGCGUAUGGCAACGCUGAGCCAAGCUUCGGCGCCUGCGCCGAUGCAGGUGUAGGGACUAGACGGCACCCACCUAAGGCUAACGCUAUGGUGAAGGCAUAGUCAAGGGAGCGGCGAAAGUCACACAAACCGG: the reverse-splicing fitness stood at 0.01.

As for GUGCCUUGCGCCGGGAAACCACGCAAGGGAUGGUGUCAAAUUCGGCGAAACCUAAGCGCCCGCCCGGGCGUAUGGCAACGCUGAGCCAAGCUUCGGCGCCUGCGCCGAUGCAGGUGUAGGGACUAGACGGCACCCACCUAAGGCUAACGUUAUGGUGAAGGCAUAGUCGAGGGAGUGGCGAAAGUCACACAAACCGG, the reverse-splicing fitness is 0.00846.

As to GUGCCUUGCGCCGGGAAACCACGCAAGGGAUGGUGUCAAAUUCGGCGAAACCUAAGCGCCCGCCCGGGCGUAUGGCAACGCUGAGCCAAGCUUCGGCGCCUGCGCCGAUGCAGGUGUAGGGACUAGACGGCACCCACCUAAGGCUAACGUUAUGGUGAAGGCAUAGUCAAGGGAGUGGCGAAAGUCACACAAACCGG, the reverse-splicing fitness amounted to 0.00896.

With GUGCCUUGCGCCGGGAAACCACGCAAGGGAUGGUGUCAAAUUCGGCGAAACCUAAGCGCCCGCCCGGGCGUAUGGCAACGCUGAGCCAAGCUUCGGCGCCUGCGCCGAUGCAGGUGUAGGGACUAGACGGCACCCACCUAAGGCUAACGUUAUGGUGAAGGCAUAGUCUAGGGAGUGGCGAAAGUCACACAAACCGG, the reverse-splicing fitness stood at 0.00803.

For GUGCCUUGCGCCGGGAAACCACGCAAGGGAUGGUGUCAAAUUCGGCGAAACCUAAGCGCCCGCCCGGGCGUAUGGCAACGCUGAGCCAAGCUUCGGCGCCUGCGCCGAUGCAGGUGUAGGGACUAGACGGCACCCACCUAAGGCUAACGUUAUGGUGAAGGCAUAGUCCAGGGAGUGGCGAAAGUCACACAAACCGG, the reverse-splicing fitness worked out at 0.0111.

With GUGCCUUGCGCCGGGAAACCACGCAAGGGAUGGUGUCAAAUUCGGCGAAACCUAAGCGCCCGCCCGGGCGUAUGGCAACGCUGAGCCAAGCUUCGGCGCCUGCGCCGAUGCAGGUGUAGGGACUAGACGGCACCCACCUAAGGCUAACGCUAUGGUGAAGGCAUAGUCAAGGGAGUGGCGAAAGUCACACAAACCGG, the reverse-splicing fitness turned out to be 0.00767.

With GUGCCUUGCGCCGGGAAACCACGCAAGGGAUGGUGUCAAAUUCGGCGAAACCUAAGCGCCCGCCCGGGCGUAUGGCAACGCUGAGCCAAGCUUCGGCGCCUGCGCCGAUGCAGGUGUAGGGACUAGACGGCACCCACCUAAGGCUAACGCUAUGGUGAAGGCAUAGUCUAGGGAGUGGCGAAAGUCACACAAACCGG, the reverse-splicing fitness is 0.00765.

Turning to GUGCCUUGCGCCGGGAAACCACGCAAGGGAUGGUGUCAAAUUCGGCGAAACCUAAGCGCCCGCCCGGGCGUAUGGCAACGCUGAGCCAAGCUUCGGCGCCUGCGCCGAUGCAGGUGUAGGGACUAGACGGCACCCACCUAAGGCUAACGCUAUGGUGAAGGCAUAGUCGAGGGAGUGGCGAAAGUCACACAAACCGG, the reverse-splicing fitness is 0.00905.
